{
  "source": "paper PMC7144924",
  "about": "(Nucleic Acids Research, 2020)",
  "binders": {"B1": {"name": "[35S]-methionine-labeled Rrp36, in vitro translated (natural protein, S. cerevisiae, UniProt Q12481 1-300, looked up)", "chain": "MSYYFKNLKPDLNSDVEEDDGNLLESIMANKSKREIDEQESSDDELKTLSFGSLKKAETVIDEEDFKDTKPVHKKPITTTYREESFDEDEDSEDQSDEDAGFFEEDSEDETHHGQKVPKKKSKHAPVEQSSKKRVPRVRNIPGLEIPRNKRSNLYQDIRFDKSTGKALDSSIIRKRYQFLDEYREKEIDELQKLLQERKFLSKIDQGEREEMEQRLKSMKSRLQSMKNKDLEREILKEYENDMNKNNNTRYHLKKSEKRKVVQKWKFDHMKAKQREKVMERKRKKRLGKEFKQFEFHNRR", "modifications": "[35S]-methionine-labeled"}},
  "target": "T1, GST-tagged R289A mutant Rrp9 (S. cerevisiae, UniProt Q06506 1-573, R289A)",
  "T1 sequence (looked up)": "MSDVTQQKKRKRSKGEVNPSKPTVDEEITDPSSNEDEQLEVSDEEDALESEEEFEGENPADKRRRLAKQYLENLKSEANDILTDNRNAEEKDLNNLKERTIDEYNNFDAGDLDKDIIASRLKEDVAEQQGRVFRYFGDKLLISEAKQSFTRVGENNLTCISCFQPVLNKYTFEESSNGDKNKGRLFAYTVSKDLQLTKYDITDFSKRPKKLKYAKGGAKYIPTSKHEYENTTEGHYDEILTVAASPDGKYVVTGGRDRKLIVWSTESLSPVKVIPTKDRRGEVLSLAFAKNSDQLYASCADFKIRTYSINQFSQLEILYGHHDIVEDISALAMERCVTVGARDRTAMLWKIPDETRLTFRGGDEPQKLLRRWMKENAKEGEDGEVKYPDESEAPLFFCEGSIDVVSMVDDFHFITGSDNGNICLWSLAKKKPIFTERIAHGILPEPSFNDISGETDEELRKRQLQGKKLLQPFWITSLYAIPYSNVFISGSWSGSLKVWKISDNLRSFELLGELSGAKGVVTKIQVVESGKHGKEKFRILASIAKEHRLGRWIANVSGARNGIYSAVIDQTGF",
  "test": "pull-down",
  "data": [
    {"binder": "B1", "values": [
      {"measurement": "reduction of recovery relative to WT Rrp9", "value": 20, "unit": "%"}
    ]}
  ]
}
